Consider three molecules from patent US7792645B2, “Three-dimensional structure of chalcone isomerase and methods of use thereof” (The Salk Institute for Biological Studies, priority 2000, dated 2010).

Where a chain is given by its changes, count along the chain named. Numbers in names are those of the source.

In one data set the target is T1, CHI active site (Medicago sativa, UniProt P28012).
T1 construct: histidine tag (pHIS8 vector) (N, cleaved yes); made in house; host or cells: E. coli BL21(DE3)
T1 sequence (P28012 1-222): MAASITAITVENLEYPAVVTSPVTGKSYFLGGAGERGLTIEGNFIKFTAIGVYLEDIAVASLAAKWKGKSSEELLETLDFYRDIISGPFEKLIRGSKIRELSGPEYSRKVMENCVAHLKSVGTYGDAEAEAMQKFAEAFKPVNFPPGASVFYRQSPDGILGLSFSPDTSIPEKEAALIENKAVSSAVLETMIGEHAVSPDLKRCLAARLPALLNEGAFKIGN
Nature of the data set: Co-crystallization of CHI with (2S/2R)-naringenin, X-ray structure. Format: binding, Medicago sativa (alfalfa). The following applies: commercial mixture of (2S)- and (2R)-naringenin used for co-crystallization. On the procedure: Crystals of CHI (SEQ ID NO:1) were grown at 4° C. by vapor diffusion using the hanging drop method. A 2 μl drop containing a 1:1 mixture of 25 mg ml^−1 CHI and crystallization buffer (25% glycerol, 1.8-2.0 M ammonium sulfate and 0.05 M PIPES, pH 6.5) yielded diffraction quality crystals within a few days at 4° C. Crystals grew in space group P6522 with unit cell dimensions of a=90.37 Å; c=352.86 Å with two molecules per asymmetric unit and a solvent content of 72%. Native CHI diffraction data (105 K) were collected at beamline 7-1 of the Stanford Synchrotron Radiation Source (SSRL 7-1) on a 30 cm MAR imaging plate system. For generation of heavy atom derivatives, CHI crystals were soaked in mother liquor with either 1.2 mM K2OsCl6 or 1 mM HgCl2 for 12-16 hours. Heavy atom data (105 K) were collected at SSRL 9-1 on a 30 cm MAR imaging plate system. All images were indexed and integrated using DENZO and the reflections merged with SCALEPACK (Otwinowski, Z. & Minor, W., Methods Enzymol. 276:307-326, 1997). Data reduction was completed using programs from CCP4 (Collaborative Computational Project 4 (CCP4) Acta Crystallogr. D53:240-255, 1994) (See Table 3). […]

The target of data set [1] is T2, alfalfa chalcone synthase 2 (Medicago sativa, UniProt P30074).
T2 sequence (P30074 1-389): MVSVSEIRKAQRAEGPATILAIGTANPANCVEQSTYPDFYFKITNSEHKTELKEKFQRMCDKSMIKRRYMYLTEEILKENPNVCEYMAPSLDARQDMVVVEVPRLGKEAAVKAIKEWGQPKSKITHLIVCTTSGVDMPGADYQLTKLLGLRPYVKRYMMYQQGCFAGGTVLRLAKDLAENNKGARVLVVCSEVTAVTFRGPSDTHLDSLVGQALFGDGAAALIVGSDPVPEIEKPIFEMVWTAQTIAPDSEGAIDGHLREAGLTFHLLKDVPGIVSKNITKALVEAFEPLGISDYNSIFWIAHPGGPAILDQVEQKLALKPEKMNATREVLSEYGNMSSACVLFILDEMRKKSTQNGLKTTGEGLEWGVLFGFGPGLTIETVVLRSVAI
The experiment in a line: Gel filtration and analytical ultracentrifugation for protein association in vitro. It counts as binding. Background: In gel filtration, larger molecules generally elute earlier.

Data set [2] relates to chalcone isomerase (CHI). To be noted: cyclization of chalcone; cited from earlier work.
The subject of data set [3] is chalcone isomerase (CHI). Nature of the data set: CHI enzyme assay, steady-state kinetics of 6′-deoxychalcone cyclization. Format: biochemical, Medicago sativa (alfalfa). The following applies: for kcat: cyclization of 6′-deoxychalcone, pH 7.5, substrate 2-50 μM; for kcat / Km: 25° C.; for Km: substrate 6′-deoxychalcone, pH 7.5. The method, then: CHI assays were performed at 25° C. in a 0.5 ml reaction volume containing 0.05 M Hepes (pH 7.5), 50 μM 6′-deoxychalcone, and 3% ethanol as co-solvent. Time-dependent decreases in 6′-deoxychalcone absorbance (λmax=390 nm; ε=29,400 M^−1 cm^−1) were monitored with a Beckman DU-640 spectrophotometer. Determination of steady-state kinetic constants used the standard assay system with varied concentrations of substrate (2-50 μM) following fitting to the Michaelis-Menton equation using KALEIDAGRAPH (Abelbeck Software).

Regarding `O=C1C[C@@H](c2ccc(O)cc2)Oc2cc(O)cc(O)c21` [(2S)-naringenin, 5,7,4′-trihydroxyflavanone], the “binding to CHI active site in co-crystal” value on CHI active site was “bound the CHI active site”.

B1: CHI wild-type: chalcone isomerase from Medicago sativa (alfalfa), SEQ ID NO:1, expressed in E. coli (protein, listed as Medicago sativa)
chain: T1 sequence (P28012 1-222) with R36X, L38X, T48X, Y106X, K109X, V110X, N113X, T190X, M191X
modifications: MOD_RES (36) Arg, Met, Lys, Ala, His or Gln
As to B1, the “association of alfalfa CHI and alfalfa chalcone synthase 2” value in data set [1] is given as “failed to detect association”. Further, the “enzyme-catalyzed rate over spontaneous conversion rate” value in the data set with chalcone isomerase (CHI) [2] is on record as 10^7 fold. The turnover number (kcat) came out at 73.07 ± 8.62 s⁻¹ in the data set on chalcone isomerase (CHI) [3] and 73.07 s⁻¹ in the data set with chalcone isomerase (CHI) [3] (listed as wild-type CHI). Further, the Km with chalcone isomerase (CHI) [3] worked out at 25.7 µM.

B2: CHI Y106F: alfalfa chalcone isomerase mutant, Tyr 106 substituted by phenylalanine (protein, UniProt P28012 1-222, looked up, variant Y106F)
Chalcone--flavanone isomerase …: T1 sequence (P28012 1-222) with Y106F
For B2, in the data set with chalcone isomerase (CHI) [3] (Y106F mutant versus wild-type CHI, 6′-deoxychalcone), the “reduction in reaction rate” value came out at 100 fold. For the same molecule, in the data set on chalcone isomerase (CHI) [3], the turnover number (kcat) worked out at 1.15 ± 0.085 s⁻¹ and the Km is 29.1 µM. Moreover, the kcat in the data set with chalcone isomerase (CHI) [3] (listed as CHI Y106F mutant) came out at 1.15 s⁻¹.

For orientation: kcat means the number of substrate molecules converted per active site and unit of time at saturation. What is called Km is the substrate concentration at which the rate is half of its maximum.
